Measured values as given in PMC4631893, “Pseudomonas aeruginosa Exopolyphosphatase Is Also a Polyphosphate: ADP Phosphotransferase” (Enzyme Research, 2015).

What was measured:
[1] = test system: Nc1ncnc2c1ncn2[C@@H]1O[C@H](COP(=O)(O)OP(=O)(O)O)[C@@H](O)[C@H]1O; assay: phosphotransferase activity, ATP by luciferin-luciferase; type: biochemical, Pseudomonas aeruginosa; conditions: polyP25 or polyP65 as phosphate donor, 5 mM Mg2+, Tris-HCl pH 8.0, 37°C, one rounded value for both variants and both polyP, data not shown
[2] = biological target: T1, paPpx(1–506) (Pseudomonas aeruginosa, UniProt Q9ZN70); conditions: 8 μM polyP65, 5 mM Mg2+, Tris-HCl pH 8.0, 37°C; nonessential activator, sigmoid curve
T1 construct: gene ppx
T1 sequence (Q9ZN70 whole entry): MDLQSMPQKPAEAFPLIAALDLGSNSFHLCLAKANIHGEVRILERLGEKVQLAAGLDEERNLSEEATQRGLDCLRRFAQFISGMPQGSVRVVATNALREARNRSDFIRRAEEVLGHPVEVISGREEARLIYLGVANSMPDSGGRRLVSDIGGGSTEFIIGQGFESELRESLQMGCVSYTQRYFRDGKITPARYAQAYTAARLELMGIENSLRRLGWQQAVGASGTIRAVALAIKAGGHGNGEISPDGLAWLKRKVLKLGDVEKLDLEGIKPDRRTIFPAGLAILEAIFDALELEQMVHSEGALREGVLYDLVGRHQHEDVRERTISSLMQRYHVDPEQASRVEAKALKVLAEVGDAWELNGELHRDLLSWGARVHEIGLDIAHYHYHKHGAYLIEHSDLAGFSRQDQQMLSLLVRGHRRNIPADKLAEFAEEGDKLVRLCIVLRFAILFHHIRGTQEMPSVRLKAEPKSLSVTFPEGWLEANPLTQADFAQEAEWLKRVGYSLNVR

“paPpx(1–506) (Pseudomonas aeruginosa PAO1)” gave a Km [1] of 90 µM.
For `N` [NH4^+], the “K 0.5(app)NH4^+” value [2] was 10 ± 0.4 mM.
Molecule “N-paPpx(1–314) (Pseudomonas aeruginosa PAO1)” has a Km [1] of 90 µM.
